In PMC7424515, “Molecular characterization of pyridoxine 5′-phosphate oxidase and its pathogenic forms associated with neonatal epileptic encephalopathy” (Scientific Reports, 2020):
Where a chain is given by its changes, count along the chain named. In names and notes the source's numbering stands.

B1: human pyridoxine 5′-phosphate oxidase (PNPO), wild type (enzyme)
chain: MTCWLRGVTATFGRPAEWPGYLSHLCGRSAAMDLGPMRKSYRGDREAFEETHLTSLDPVKQFAAWFEEAVQCPDIGEANAMCLATCTRDGKPSARMLLLKGFGKDGFRFFTNFESRKGKELDSNPFASLVFYWEPLNRQVRVEGPVKKLPEEEAECYFHSRPKSSQIGAVVSHQSSVIPDREYLRKKNEELEQLYQDQEVPKPKSWGGYVLYPQVMEFWQGQTNRLHDRIVFRRGLPTGDSPLGPMTHRGEEDWLYERLAP
notes: also called wild type PNPO; pyridoxal 5′-phosphate synthase; source: E. coli, pET28-PNPO, purified (HisTrap metal-chelation chromatography)
B2: human PNPO R141C variant (enzyme)
chain: B1 chain with R141C
notes: Pathogenic variant found in a PNPOD patient; source: E. coli Rosetta(λDE3), purified (HisTrap metal-chelation chromatography)
B3: human PNPO R225H variant (enzyme)
chain: B1 chain with R225H
notes: Pathogenic variant found in PNPOD patients; source: E. coli Rosetta(λDE3), purified (HisTrap metal-chelation chromatography)
B4: human PNPO R116Q/R225H double variant (enzyme)
chain: B1 chain with R116Q, R225H
notes: Combination of replacements found together in PNPOD patients; source: E. coli Rosetta(λDE3), purified (HisTrap metal-chelation chromatography)
B5: human PNPO G118R variant (enzyme)
chain: B1 chain with G118R
notes: as for B3

Molecular target: human PNPO X262Q variant (human)
Experiment: SEC; Superdex 200 10/300 GL; 20 mM potassium-phosphate buffer, pH 7.6, 150 mM NaCl, 5 mM 2-mercaptoethanol; oligomeric state from elution profile

Stoichiometry N, 2:
human PNPO X262Q variant (enzyme)

Molecular target: the molecule itself
Experiment: as above

Stoichiometry N, 2:
B1
B2
B3
B4
B5
